{"source": "paper PMC4368798", "about": "“Protein-Binding RNA Aptamers Affect Molecular Interactions Distantly from Their Binding Sites”", "binders": {"B1": {"name": "upanap-12 (XNA)", "RNA": "GGGGCCACCAACGACAUUUGCGACUGUUAUAACCUAACAGCGACGUAAAGAUAGUUGAUAUAAAUAGUGCCCAUGGAUC", "modifications": "2'-fluoro pyrimidines (2'-F-C, 2'-F-U)"}, "B2": {"name": "upanap-126 (XNA)", "RNA": "GGGGCCACCAACGACAUUCAUUCGCACGCUGUGUGGGGAUUAGUCCCGAUGUUGUUGAUAUAAAUAGUGCCCAUGGAUC", "modifications": "2'-fluoro pyrimidines (2'-F-C, 2'-F-U)"}, "B3": {"name": "control RNA (XNA)", "RNA": "GGGGCCACCAACGACAUUAACUCACGUUGCAACUAAUACGCUGAGUGGAAACCGUUGAUAUAAAUAGUGCCCAUGGAUC", "modifications": "2'-fluoro pyrimidines (2'-F-C, 2'-F-U)"}}, "key": {"GFD of uPA": {"molecular_target": "T1, GFD of uPA (Homo sapiens, UniProt P00749 24-63)", "T1 chain": "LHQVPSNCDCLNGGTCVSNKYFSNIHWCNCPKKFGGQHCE", "experiment": "SPR competition; 50 nM aptamer; no inhibition of GFD binding to uPAR; SPR: HBS (20 mM HEPES, 140 mM NaCl, pH 7.4), 2 mM MgCl2, 0.1% BSA, 0.005% Tween 20, temperature not stated; SAXS: HBS, 2 mM MgCl2, 25 C", "details": "protein: recombinant; 79 nt"}, "ATF of uPA": {"molecular_target": "ATF of uPA (UniProt P00749 21-151)", "experiment": "SPR competition; inhibition of 4 nM ATF binding to immobilized uPAR; SPR: HBS (20 mM HEPES, 140 mM NaCl, pH 7.4), 2 mM MgCl2, 0.1% BSA, 0.005% Tween 20, temperature not stated; SAXS: HBS, 2 mM MgCl2, 25 C", "details": "protein: commercial; 79 nt"}, "pro-uPA wild type [1]": {"molecular_target": "T2, pro-uPA wild type (Homo sapiens, UniProt P00749 21-431)", "experiment": "SPR competition; inhibition of 4 nM pro-uPA binding to immobilized uPAR; SPR: HBS (20 mM HEPES, 140 mM NaCl, pH 7.4), 2 mM MgCl2, 0.1% BSA, 0.005% Tween 20, temperature not stated; SAXS: HBS, 2 mM MgCl2, 25 C", "details": "protein: recombinant; 79 nt"}, "pro-uPA R391/231A": {"molecular_target": "pro-uPA R391/231A (Homo sapiens, UniProt P00749 21-431, R411A)", "experiment": "SPR competition; still inhibits uPAR binding (data not shown); SPR: HBS (20 mM HEPES, 140 mM NaCl, pH 7.4), 2 mM MgCl2, 0.1% BSA, 0.005% Tween 20, temperature not stated; SAXS: HBS, 2 mM MgCl2, 25 C", "details": "protein: recombinant; 79 nt"}, "pro-uPA Y284/127A": {"molecular_target": "pro-uPA Y284/127A (Homo sapiens, UniProt P00749 21-431, Y304A)", "experiment": "SPR competition; still inhibits uPAR binding (data not shown); SPR: HBS (20 mM HEPES, 140 mM NaCl, pH 7.4), 2 mM MgCl2, 0.1% BSA, 0.005% Tween 20, temperature not stated; SAXS: HBS, 2 mM MgCl2, 25 C", "details": "protein: recombinant; 79 nt"}, "pro-uPA wild type [2]": {"molecular_target": "T2, pro-uPA wild type", "experiment": "competition, 125I-pro-uPA cell binding; U937 cells, 1 h, 4 C; effect lost on prolonged incubation; SPR: HBS (20 mM HEPES, 140 mM NaCl, pH 7.4), 2 mM MgCl2, 0.1% BSA, 0.005% Tween 20, temperature not stated; SAXS: HBS, 2 mM MgCl2, 25 C", "details": "protein: recombinant"}, "pro-uPA wild type;uPAR [3]": {"molecular_target": "T3, pro-uPA wild type;uPAR (Homo sapiens;Homo sapiens, UniProt P00749;Q03405 21-431;23-305, |)", "T3 sequence (Q03405 23-305, chain 2 of 2, other chains not shown)": "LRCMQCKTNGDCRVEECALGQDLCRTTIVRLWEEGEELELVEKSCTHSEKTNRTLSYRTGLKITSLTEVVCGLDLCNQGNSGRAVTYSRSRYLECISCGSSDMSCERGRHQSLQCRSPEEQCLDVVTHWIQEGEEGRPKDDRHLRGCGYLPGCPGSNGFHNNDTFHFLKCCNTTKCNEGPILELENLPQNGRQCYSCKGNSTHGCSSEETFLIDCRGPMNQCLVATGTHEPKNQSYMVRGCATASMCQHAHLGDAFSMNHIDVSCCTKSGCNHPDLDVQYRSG", "experiment": "SPR; 100 nM aptamer on captured pro-uPA:uPAR; SPR: HBS (20 mM HEPES, 140 mM NaCl, pH 7.4), 2 mM MgCl2, 0.1% BSA, 0.005% Tween 20, temperature not stated; SAXS: HBS, 2 mM MgCl2, 25 C", "details": "protein: recombinant;recombinant; tags: ;; copies: 1;1"}, "pro-uPA wild type;uPAR [4]": {"molecular_target": "T3, pro-uPA wild type;uPAR", "experiment": "SPR competition; 200 nM control RNA; no significant effect on vitronectin binding; SPR: HBS (20 mM HEPES, 140 mM NaCl, pH 7.4), 2 mM MgCl2, 0.1% BSA, 0.005% Tween 20, temperature not stated; SAXS: HBS, 2 mM MgCl2, 25 C", "details": "protein: recombinant;recombinant; tags: ;; copies: 1;1"}, "pro-uPA wild type [5]": {"molecular_target": "T2, pro-uPA wild type", "experiment": "SPR competition; up to 200 nM control RNA; no effect on pro-uPA binding to LRP-1A; SPR: HBS (20 mM HEPES, 140 mM NaCl, pH 7.4), 2 mM MgCl2, 0.1% BSA, 0.005% Tween 20, temperature not stated; SAXS: HBS, 2 mM MgCl2, 25 C", "details": "protein: recombinant"}}}
{"binder": "B1", "values": [{"measurement": "binding result", "setting": "GFD of uPA", "result": "no binding"}, {"measurement": "IC50", "setting": "ATF of uPA", "result": "1.8 ± 0.2", "unit": "nM"}, {"measurement": "IC50", "setting": "pro-uPA wild type [1]", "result": "2.2 ± 0.1", "unit": "nM"}, {"measurement": "binding result", "setting": "pro-uPA R391/231A", "result": "binds"}, {"measurement": "binding result", "setting": "pro-uPA Y284/127A", "result": "binds"}]}
{"binder": "B2", "values": [{"measurement": "IC50", "setting": "pro-uPA wild type [2]", "result": "~500", "unit": "nM"}, {"measurement": "binding result", "setting": "pro-uPA wild type;uPAR [3]", "result": "binds"}]}
{"binder": "B3", "values": [{"measurement": "binding result", "setting": "pro-uPA wild type;uPAR [4]", "result": "no binding"}, {"measurement": "binding result", "setting": "pro-uPA wild type [5]", "result": "no binding"}]}
